Consider 80 sequences from the supplement of paper PMC10724198.

± gives the standard deviation of the averaged measurements.
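Also: PSI is a weighted mean of sequencing reads over stability bins, variants kept only with over 10 reads, mCherry proximal and sfGFP distal, peptide attached via GGGS linker.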

The data set has as its system Saccharomyces cerevisiae. The data set is described as follows: protein stability index of tFT-peptide fusion (C-terminal peptide) (PSI (0-1 scale)); higher = more stable (slower turnover). Particulars: genetic background: wild type; temperature: 30 C.
The sequence SQLKHLPPDREC registered a protein stability index of 0.679 ± 0.016.
SQMMLKQKFLRR displayed a protein stability index of 0.628 ± 0.024.
In turn, SRACTRRSHTLE gave a protein stability index of 0.681 ± 0.032.
In the case of SRAIEPSEFSVA, the protein stability index worked out at 0.715 ± 0.055.
Regarding SRARPPLLPFPP, the protein stability index was found to be 0.615 ± 0.061.
For SRASTGPPPPGT, the protein stability index is 0.692 ± 0.026.
Take SRCGSFRICFGT: the protein stability index came out at 0.638 ± 0.013.
Sequence SRFLPPSHLLPP came in with a protein stability index of 0.738 ± 0.093.
SRFVRNRYGRVV showed a protein stability index of 0.648 ± 0.027.
Turning to SRGRAGESRPRG, the protein stability index is 0.712 ± 0.069.
Regarding SRGSSGHLVNLV, the protein stability index turned out to be 0.607 ± 0.049.
SRGVLLCHCSIA yielded a protein stability index of 0.758 ± 0.12.
As to SRKCLPPLQLWS, the protein stability index came out at 0.759 ± 0.067.
In turn, SRLLPPLPPLSP had a protein stability index of 0.767 ± 0.097.
Sequence SRNKLNSIIIEK yielded a protein stability index of 0.608 ± 0.046.
As to SRPLPLPPRPLP, the protein stability index came out at 0.647 ± 0.023.
In turn, SRPLPPSLPPPP had a protein stability index of 0.756 ± 0.0098.
On to SRPLQPLHQPKY, for which the protein stability index worked out at 0.681 ± 0.052.
SRPPAPPPLPAP: the protein stability index turned out to be 0.726 ± 0.025.
For SRPPPPSIYLSI, the protein stability index was 0.6912 ± 0.0021.
SRPRSPPPPPIT displayed a protein stability index of 0.819 ± 0.054.
On to SRPTSGPPQPPL, for which the protein stability index came to 0.707 ± 0.022.
In the case of SRPVSSFPPPLR, the protein stability index is 0.664 ± 0.071.
On to SRQDLPKYVYLY, for which the protein stability index came out at 0.508 ± 0.016.
With SRRENEVIGGAE, the protein stability index came to 0.725 ± 0.068.
For SRRGARRHVRLK the value was 0.6757 ± 0.00074.
On to SRRGFTHDGLKD, for which the protein stability index came out at 0.645 ± 0.032.
On to SRRLQSPVRVVT, for which the protein stability index came out at 0.773 ± 0.15.
As for SRRRSPARPSLP, the protein stability index turned out to be 0.7462 ± 0.0045.
Regarding SRRRVTSCTARG, the protein stability index was 0.729 ± 0.018.
On to SRRSCTLLSTTW, for which the protein stability index was determined as 0.698 ± 0.022.
The sequence SRRSVVRPPCIG gave a protein stability index of 0.656 ± 0.056.
In turn, SRRVSLGLSVDS registered a protein stability index of 0.662 ± 0.074.
SRSETIQTGIGW gave a protein stability index of 0.706 ± 0.012.
Turning to SRSISCPVLSKI, the protein stability index was found to be 0.707 ± 0.017.
For the sequence SRSKVVVHNSYW, the protein stability index was found to be 0.724 ± 0.14.
In the case of SRSSPLYRRGVR, the protein stability index worked out at 0.679 ± 0.089.
For SRTLYERTRFVL the value was 0.647 ± 0.018; for SRVPTSRARKRS, 0.7001 ± 0.0042; for SSCLDAHPPSSS, 0.736 ± 0.072.
For SSCLRQGVGACG the value was 0.702 ± 0.018; for SSDFTSRHTRPP, 0.639 ± 0.035.
For SSDSYANLNWVI the value was 0.741 ± 0.038; for SSEECYDTKGEL, 0.674 ± 0.027.
In turn, SSENIQLADQLR returned a protein stability index of 0.702 ± 0.046.
SSFLLGCAFPLG: the protein stability index was found to be 0.688 ± 0.0075.
Sequence SSFLSFSSGCQS gave a protein stability index of 0.757 ± 0.045.
The sequence SSFNSCQFVLSY showed a protein stability index of 0.563 ± 0.011.
The sequence SSFSACPTKIII displayed a protein stability index of 0.686 ± 0.048.
For SSGCVNILIDLF the value was 0.638 ± 0.011; for SSGKRANINKNK, 0.695 ± 0.022.
In the case of SSGVCSGTSALN, the protein stability index amounted to 0.681 ± 0.033.
The sequence SSHWGRSRLASG had a protein stability index of 0.674 ± 0.1.
Sequence SSIVGRLLSTNT showed a protein stability index of 0.664 ± 0.071.
For SSLLLPALSPSV, the protein stability index amounted to 0.647 ± 0.077.
In turn, SSLLSLAFFAPS registered a protein stability index of 0.7147 ± 0.0056.
For SSLPAPSPVPSP, the protein stability index turned out to be 0.731 ± 0.081.
In turn, SSLPPPRLFLLP showed a protein stability index of 0.697 ± 0.085.
Turning to SSLQGSCPSKSL, the protein stability index is 0.7 ± 0.044.
SSLTTCFLSFPP came in with a protein stability index of 0.668 ± 0.066.
SSLVRFDSSAPL: the protein stability index was found to be 0.665 ± 0.033.
Regarding SSNLLFCSIFYV, the protein stability index amounted to 0.6181 ± 0.0021.
Regarding SSNRKLVRLASS, the protein stability index was 0.69 ± 0.084.
SSNSSFFIWGLV had a protein stability index of 0.7119 ± 0.00078.
The sequence SSPIRPFLPPGY yielded a protein stability index of 0.6709 ± 0.0049.
SSPLWCFRLVFF came in with a protein stability index of 0.583 ± 0.015.
Sequence SSPNPPRELGPY had a protein stability index of 0.607 ± 0.055.
Sequence SSPPAPHGAHPP yielded a protein stability index of 0.752 ± 0.0099.
In turn, SSPPAPHLAPPP registered a protein stability index of 0.703 ± 0.053.
On to SSPPPPALPEYQ, for which the protein stability index was found to be 0.699 ± 0.0082.
For SSPRANAYASCP the value was 0.726 ± 0.16.
SSPSSFLTLLFI gave a protein stability index of 0.621 ± 0.069.
SSRLVFFLPSLR: the protein stability index is 0.6966 ± 0.0022.
In the case of SSRPLYLFSALR, the protein stability index is 0.689 ± 0.053.
SSRTFRFRPPTI displayed a protein stability index of 0.702 ± 0.01.
SSRWSMEHMAAW showed a protein stability index of 0.715 ± 0.059.
For SSSACNMPVVRL the value was 0.705 ± 0.05.
SSSCRPVSSAIV: the protein stability index was 0.651 ± 0.089.
As to SSSLLFVLGPSW, the protein stability index came out at 0.715 ± 0.034.
For SSSLRLCSCAGQ the value was 0.723 ± 0.049.
